Data on 41 sequences can be found in the nanobody polyreactivity screen of Harvey et al. (2022).

A short description of the series: yeast display, Sf9 membrane polyspecificity reagent, FACS + sequencing; frameworks hold sequencing errors. In outline:
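After 36–48 hours of galactose induction, yeast (Saccharomyces cerevisiae BJ5465) displaying a synthetic nanobody library were stained at 4 °C for 1 hour with 10% biotinylated, detergent-solubilized Sf9 membrane reagent. Streptavidin microbeads enriched the stained cells before FACS sorting into low and high (top ~1%) gates on anti-HA and streptavidin fluorescence. Each clone's polyreactivity label reflects its gate of origin.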
With “QVQLVESAGGLVQAGGSLRLSCAASGRIFYYAMGWYRQAPGKEREFVAAISGSGGSTNYADSVKGRFTISRDNAKNTVYLQMNSLKPEDTAVYYCNAESWSWGFIYEYEYWGQGTQVTVSS”, the “polyreactivity (PSR sort gate)” value is given as “high polyreactivity”.

With “QVQLVESAGGLVQAGGSLRLSCAASGRTFQYYALGWYRQAPGKERELVAAISWSGGSTYYADSVTGRFTISRDNAKNTVYLLMNSLKPEDSAVYYCAKTSSGRKFYWGQGTQVTVSS”, the “polyreactivity (PSR sort gate)” value is “high polyreactivity”.

For the sequence “QVQLVESAGGLVQAGGSLRLSCAASGRTFYPYAMGWYRQAPGKARELVAAIRSSGGTTYYADSVKGRFTISRDNAKNTVYVQMNSLKPEDTAVYYCAAFVDRQGGYYWGQGTQVTVSS”, the “polyreactivity (PSR sort gate)” value is reported as “high polyreactivity”.

Take “QVQLVESAGGLVQAGGSLRLSCAASGSIFPLYAMGWYRQAPGKERELVAAISYSGGRTYYADSVKGRFTISRDNAKNTVYLQMNSLKPEDTAVYYCNTRQRVIDDYWGQGTQVTVSS”: the “polyreactivity (PSR sort gate)” value was “high polyreactivity”.

“QVQLVESAGGLVQAGGSLRLSCAASGSIFRAYSMGWYRQAPGKERELVAAISWGGGSTSYADSVKGRFTISRDNAKNTVYLQMNSLQPEDTAVYYCNKVSFSKRRDYYWGQGTQVTVSS”: the “polyreactivity (PSR sort gate)” value is given as “high polyreactivity”.

For the sequence “QVQLVESAGGLVQAGGSLRLSCAASGSIFYEYAMGWYRQAPGKERELVATITWTDDSTYYADSVKGRFTISRDNAKNTVYLQMNSLKPEDTAVYYCNADLWPGNHDGYWGQGTQVTVSS”, the “polyreactivity (PSR sort gate)” value was “low polyreactivity”.

For “QVQLVESAGGLVQAGGSLRLSCAASGSIFYRYVMGWYRQAPGKERELVAAITSDGSTNYADSVKGRFTISRDNAKNTVYLQMNSLKPEDSAVYYCNARSYRGRFDYWGLGTQVTVSS”, the “polyreactivity (PSR sort gate)” value is reported as “low polyreactivity”.

As for “QVQLVESAGGLVQAGGSLRLSCAASGSIFYTYAMGWYRQAPGKERELVAAISGSGTSTYYADSVKGRFTISRDNAKNTVYLQMNSLKPEDTAVYYCATDGGAAWGRYYWDYGYWGQGTQVTVSS”, the “polyreactivity (PSR sort gate)” value is on record as “low polyreactivity”.

Take “QVQLVESAGGLVQAGGSLRLSCAASGSNFAIYDMGWYRQAPGKEREFVADISIVGRKKYADSVKGRFTISRDNAKNTVYLQMNSLKPEDTAVYYCTDQDSRDRKFYWGYTRGHWGQGTQVTVSS”: the “polyreactivity (PSR sort gate)” value is listed as “low polyreactivity”.

As to “QVQLVESAGGLVQAGGSLRLSCAASGSTFQDYVMGWYRQAPGKERELVAAISRSGGSTYYADSVKGRFTISRDNAKNTVYLQMNSLKPEDTAVYYCAAQQYTYFVPFLTYGEYDYWGQGTQVTVSS”, the “polyreactivity (PSR sort gate)” value is recorded as “low polyreactivity”.

Consider “QVQLVESAGGLVQAGGSLRLSCAASGSTFQYYAMGWYRLAPGKDRELVATITLIAGSTYADSVKGRFTISRDNAKNTVYLQMNSLNPEDTEVYYCAADDGGYETPELLYGGRGDDWGQGTQVTVSS”, for which the “polyreactivity (PSR sort gate)” value is “low polyreactivity”.

“QVQLVESAGGLVQAGGSLRLSCAASGSTFYPYAIGWYRQAPGKERELVAAISSGGSTYYADSVKGRFTISRDNAKNTVYLQMNSLKPEDTAVYYCAADFYYAYYWGQGTQVTVSS”: the “polyreactivity (PSR sort gate)” value was “low polyreactivity”.

Turning to “QVQLVESAGGLVQAGGSLRLSCAASGYIFGVYAMGWYRQAPGKERELVAAISYGVGSTYYADSVKGRFTISRDNAKNTVYLQMNSLKPEDTAVYYCASDVFFYVYEAYLLYYWGQGTQVTVSS”, the “polyreactivity (PSR sort gate)” value is reported as “low polyreactivity”.

As to “QVQLVESAGGLVQAGGSLRLSCAASGYIFWENAMGWYRQAPGKERELVAAITVSGGGTYYADSVKGRFTISRDNAKNTVYLQMNSLKPEDTAVYYCAADEDNPWLWFYYWGHGTQVTVSS”, the “polyreactivity (PSR sort gate)” value is “low polyreactivity”.

As to “QVQLVESAGGLVQAGGSLRLSCAATGRTFYVNAMGWYRQAPGKERELVAAISSGDSSTYYADSVKGRFTSSRDNAKNTVYLQMNSLKPEDTAVYYCAAEVWVYFEYEYWGQGTQVTVSS”, the “polyreactivity (PSR sort gate)” value is “high polyreactivity”.

Turning to “QVQLVESAGGLVQAGGSLRLSCAPSGRIFYYNAMGWYRQAPGKERELVAAITSGGSTNYADSVKGRFTISRDNAKNTVYLQMNSLKPEDTAVYYCAADYYFYVAGVHYDYWGQGTQVTVSS”, the “polyreactivity (PSR sort gate)” value is “low polyreactivity”.

With “QVQLVESAGGLVQAGGSLRLSCAPSGSTFNYYAMGWYRQAPGKESELGAAIDWSGGSTYYADSVKGRFTISRDNAKNTVYLQMNSLKPDDTAVYYCAARTYDYSYGSFDYWGQGTQVTVSS”, the “polyreactivity (PSR sort gate)” value was “low polyreactivity”.

For the sequence “QVQLVESAGGLVQAGGSLRLSCDASGRTFPYNAMGWYRQAHGKERELVAGITGGGSTYYADSVKGRFTISRDNAKNNVYLQMNSLKPEDTAVYYCAADRYFLYATYPDVEFNYWGQGTQVTVSS”, the “polyreactivity (PSR sort gate)” value is on record as “high polyreactivity”.

As for “QVQLVESAGGLVQAGGSLRLSCDASGSIFTTNAMGWYRQAPGKERELVAAITSTAGSTYYADSVKGRFKISRDNAKNTVYLQMNSLKPEDTAVYYCAATYNVGVKAWYDYWGQGSQVTVSS”, the “polyreactivity (PSR sort gate)” value is listed as “high polyreactivity”.

On to “QVQLVESAGGLVQAGGSLRLSCDASVSTFGYYAMGWYRQAPGKERELVAVIRRGGSTNYADSVKGRFTISRDNAKNTVYLQMNSLKPEDTAVYYCAKSQRGTVYSYYYWGQGNQVTVSS”, for which the “polyreactivity (PSR sort gate)” value is “high polyreactivity”.

In the case of “QVQLVESAGGLVQAGGSLRLSCGASGRIFYYNTMGWYRQAPGKERELVAAITTNGGSTYYADSVKGRFTISRDNAKNTVYLQMYSLKPEDTAVYYCNRDRYPYYYAYNYWGQGTQVTVSS”, the “polyreactivity (PSR sort gate)” value is given as “low polyreactivity”.

Regarding “QVQLVESAGGLVQAGGSLRLSCPASGSTFTFNAMGWYRQAPGKERELVADITSGGRTNYADSVKGRFTISRDNAKNTVYLQMNSLKPEDTAVYYCAARWWAHEYPGYDSWGQGTQVTVSS”, the “polyreactivity (PSR sort gate)” value was “low polyreactivity”.

For “QVQLVESAGGLVQAGGSLRLSFAASGRISGRYAMRWYRQAPGKEREVVAAITSRGGRTYYADSVKGRFTISRDNAKNTVYLQMNSLKPEDTAVYYCAKDAGSRTVREFGYWGQGTHVTVSS”, the “polyreactivity (PSR sort gate)” value was “high polyreactivity”.

As for “QVQLVESAGGLVQAGGSLRLSSAASGIIFSEYAMGWYRPAPGKERELVAAISKSGGRTYYADSVKGRFTISGVNAKNTVDLQMNSLKPEDTAVYYCAARHAPILGDHGMKYWGQGTQVTVSS”, the “polyreactivity (PSR sort gate)” value is recorded as “high polyreactivity”.

“QVQLVESAGGLVQAGGSLRLSSAASGRTFIVYAMGWYRQARGKERELVAGITRGSTNYADSVKGRFTISRDNAKNTVYVQMNCLKPEDTAVYYCAARWQWLNGYYYWGQGTQVTVSS”: the “polyreactivity (PSR sort gate)” value is reported as “high polyreactivity”.

For the sequence “QVQLVESAGGLVQAGGSLSIICAASGFTFYGYTMGWYRQAPGKERELVAAITSDGDTNYADSVKGRFTISRDNAKNTVYLQMISLKPVDTAVYYCNADPGYYFYWWPGDYWGQGTQLTVSS”, the “polyreactivity (PSR sort gate)” value was “low polyreactivity”.

On to “QVQLVESAGGLVQAGGSLSLICAASGFIFDSYAMGWSRQAPGKERELVAAIDKRGGRTYYADSEKGRFTISRDNAKNTVYLQMNSLKPEDTAVYFCAADDYTGYGYWGQGTQVTVSS”, for which the “polyreactivity (PSR sort gate)” value was “high polyreactivity”.

Regarding “QVQLVESAGGLVQAGGSLSLSCAASGSIFWSYAMGWYRQAPGKERELVAVINWSGGSTYYADSVKGRFTISRDNAKNTVYLQMNSLKPEDTAVYYCNKDLGPTKRPFTFDYWGQGTQVTVSS”, the “polyreactivity (PSR sort gate)” value is listed as “low polyreactivity”.

For “QVQLVESAGGLVQAGGSLSLSCAATGFIFYYNTMGWYRQAPGKERELVAAINSGGSTYYADSVKGRFTISRDNAKNTVYLQMNSLKPEDTAVYYCAKRYAVSSRYYYWGQGTQVTVSS”, the “polyreactivity (PSR sort gate)” value is recorded as “high polyreactivity”.

As for “QVQLVESAGGLVQARGSLRLSCAASGRIFDVNAMGWYRQAPGKERELVAAISSGGNTKYADSVKGRFTISRDNAKNTVYLQMNSLKPEDTAVYYCNADGKAGGDSDYWGQGTQVTVSS”, the “polyreactivity (PSR sort gate)” value was “low polyreactivity”.

Regarding “QVQLVESAGGLVQARGSLRLSCAASGRIFVPYAMGWYRQAPGKERELVAVISRGGSTYYADSVKGRFTISRDNAKNTVYLQMNSLKPEDTAVYYCAVASKLALQPWYDYWGQGTQVTVSS”, the “polyreactivity (PSR sort gate)” value was “high polyreactivity”.

As for “QVQLVESAGGLVQEGGSLSLSCAASGITLTIYVMGWYRQAPGKEREMVAAISTSGGSTYYADSVKGRFTISRDNAKNTVYLQMNSLKQEDTAVYYCNATPLRRYYGRYLMDYWGQGTQVTVSS”, the “polyreactivity (PSR sort gate)” value is “high polyreactivity”.

With “QVQLVESAGGLVQSGGSLRLSCPASGRIFYLNAQGWYRQAPGKERELVAAITWSGGRTYYADSVKGRFTISRDYAKNSVYLQMNSLKPEDTAVYYCAAVPRPGPNTVLTPYGYWGQGTQVTVSS”, the “polyreactivity (PSR sort gate)” value is “high polyreactivity”.

“QVQLVESAVGLVQAGGSLRLSSAASGFTFPLYAMGWYRQEHGKEREFVPVISRSGGSTYYADSVKGRFTISRDNAKNTVYLQMNSLKPEDTAVYYCAARLVPRSPERGNYDYWGQGTQVTVSS”: the “polyreactivity (PSR sort gate)” value is reported as “high polyreactivity”.

As for “QVQLVESCAGLVQAGGSLRLTCADSGSIFDFNAMGWYRQVPGKEREWVAAITSGGSTNYADSVKGRFTNSRDNAKNTVYLQMNSLKPEDTAVYYCAARPARGASQGGYVRPWWYDSWGQGTQVTVSS”, the “polyreactivity (PSR sort gate)” value is recorded as “low polyreactivity”.

Take “QVQLVESCGALVQAGGSLLLSCAASGRTFVVNDMGWYRHAPWKERELVATINVSGGSTSYEDSVKGRFTISRDNGKYTVYLQMTSLKPEDTAVYYCNVDTYVEYPHDYWGQGTQVTVSS”: the “polyreactivity (PSR sort gate)” value is recorded as “low polyreactivity”.

“QVQLVESCGCLVQAGGSLRLSCAASGSTFRKYAMGWYRQAPGKEREFVAAITWSTGTTYYADSVKGRFTISRDNAKNTVYLQMNSLKPEDTAVYYCAADSQPPHELYESIEHESWGQGTQVTVSS”: the “polyreactivity (PSR sort gate)” value is “low polyreactivity”.

As for “QVQLVESCGGFVQAGGSLSLSCAASGSIYGRYGMGWYIQAPGKERELVAAITSGTRTNYADSVKGRFTISRDNAKNTVYLQMKSLKPEDTAVYYCYALRLRGNYEYGYWGQGTQVTVSS”, the “polyreactivity (PSR sort gate)” value is “low polyreactivity”.

In the case of “QVQLVESCGGIVQAGGSHRLSCAASGSIFAWYAMGWYRQAPGKERELVAAITYTGGRTYYADSVKGRFTISRDIAKYTVYLQMISLNPEDTAVFYCAKDGPATVRRGYDYWGQGTQVTVSS”, the “polyreactivity (PSR sort gate)” value is given as “high polyreactivity”.

As for “QVQLVESCGGLDQAGGSLRLSCAASALTFVDNAMGWYRQAPGKERELVAAISYNGGSTYYADSVKGRFTISRDNAKNTVYLQMNCLKPEDTAVYYCAADISVGRYGDMDYWGQGTLVTVSS”, the “polyreactivity (PSR sort gate)” value is “low polyreactivity”.

“QVQLVESCGGLGQAGGSLRLSCSASGRIFGTYAKGLYRKAPGKERELLASISYSDGSTYADSVKGRFTISRDNAKNTVYLQMNSLKPEDTSVYYCAADVYYYAQSEDGYWGQGTQVTVSS”: the “polyreactivity (PSR sort gate)” value is recorded as “low polyreactivity”.
